Results: publication PMC4414246

Experiments:
Assay in all cases: fluorescence polarization
U1A E19S = U1A E19S (UniProt P09012 10-89, E19S)
U1A E19A = U1A E19A (UniProt P09012 10-89, E19A)
U1A E19K = U1A E19K (UniProt P09012 10-89, E19K)
dK50dM51 E19S = dK50dM51 E19S (UniProt P09012 10-89, E19S;del50-51)
U1A E19F = U1A E19F (UniProt P09012 10-89, E19F)
U1A = U1A (UniProt P09012 10-89)
U1A L49A = U1A L49A (UniProt P09012 10-89, L49A)
dK50dM51 E19K = dK50dM51 E19K (UniProt P09012 10-89, E19K;del50-51)
U1A M51K = U1A M51K (UniProt P09012 10-89, M51K)
U1A L49K = U1A L49K (UniProt P09012 10-89, L49K)
U1A M51A = U1A M51A (UniProt P09012 10-89, M51A)
U1A E19S:N15V = U1A E19S:N15V (UniProt P09012 10-89, N15V;E19S)
U1A E19S:Y13Q = U1A E19S:Y13Q (UniProt P09012 10-89, Y13Q;E19S)
U1A L49A:E19A = U1A L49A:E19A (UniProt P09012 10-89, E19A;L49A)
U1A M51A:E19A = U1A M51A:E19A (UniProt P09012 10-89, E19A;M51A)
U1A E19A:N15V = U1A E19A:N15V (UniProt P09012 10-89, N15V;E19A)

| Binder | Kd (U1A E19S) [µM] | Kd (U1A E19A) [µM] | Kd (U1A E19K) [µM] | Kd (dK50dM51 E19S) [µM] | Kd (U1A E19F) [µM] | Kd (U1A) [µM] | Kd (U1A L49A) [µM] | Kd (dK50dM51 E19K) [µM] | Kd (U1A M51K) [µM] | Kd (U1A L49K) [µM] | Kd (U1A M51A) [µM] | Kd (U1A E19S:N15V) [µM] | Kd (U1A E19S:Y13Q) [µM] | Kd (U1A L49A:E19A) [µM] | Kd (U1A M51A:E19A) [µM] | Kd (U1A E19A:N15V) [µM] |
| --- | --- | --- | --- | --- | --- | --- | --- | --- | --- | --- | --- | --- | --- | --- | --- | --- |
| GGCAGATCTGAGCCTGGGAGCTCTCTGCC (structured_DNA) [TAR DNA] | 91.9 ± 33.4 | 100 ± 33.4 | 12.3 ± 2 | 59.9 ± 14.2 | 156 ± 80 | 146 ± 46 | 88.2 ± 22 | 29.8 ± 5.8 | 54.3 ± 7.9 | 19.5 ± 2.9 | 179 ± 37.5 | – | – | – | – | – |
| AGCUUAUCCAUUGCACCGGAUAAGCU (structured_RNA) [U1hpII RNA] | 11.4 ± 1.6 | – | – | – | 36.1 ± 6.8 | – | < 0.01 | – | – | – | – | 15.1 ± 2 | 63.6 ± 8.9 | 11.7 ± 2.1 | 15.8 ± 2.7 | 48.4 ± 12.4 |
